Experimental data published in patent US20250352661A1 (MYTHIC THERAPEUTICS, published 2025).
Substitutions are numbered along the chain they refer to. Names and notes keep the numbering of the source.

T1: LRRC15 on the surface of LRRC15+ cells (SAOS-2, U87MG) (UniProt Q8TF66 22-581, limits assumed)
T1 sequence (looked up): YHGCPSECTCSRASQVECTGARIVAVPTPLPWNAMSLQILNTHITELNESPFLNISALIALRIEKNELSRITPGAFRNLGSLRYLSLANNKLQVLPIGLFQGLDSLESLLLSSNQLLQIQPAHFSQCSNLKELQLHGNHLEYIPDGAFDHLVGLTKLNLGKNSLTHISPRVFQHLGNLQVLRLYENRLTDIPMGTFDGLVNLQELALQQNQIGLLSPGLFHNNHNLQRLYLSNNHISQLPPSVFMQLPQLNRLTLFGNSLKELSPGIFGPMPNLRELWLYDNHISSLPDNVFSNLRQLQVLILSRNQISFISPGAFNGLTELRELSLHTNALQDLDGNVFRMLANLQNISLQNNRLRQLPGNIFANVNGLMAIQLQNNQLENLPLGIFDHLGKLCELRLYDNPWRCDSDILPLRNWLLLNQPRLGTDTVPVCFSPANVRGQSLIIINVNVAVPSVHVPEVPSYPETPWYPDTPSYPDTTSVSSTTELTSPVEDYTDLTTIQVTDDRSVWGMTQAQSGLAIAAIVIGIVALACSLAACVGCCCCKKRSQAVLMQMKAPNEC

T2: Human LRRC15 Protein, His Tag (Acro Biosystems) (human, UniProt Q8TF66 22-538, limits assumed)
T2 construct: not shown: His tag
T2 sequence (looked up): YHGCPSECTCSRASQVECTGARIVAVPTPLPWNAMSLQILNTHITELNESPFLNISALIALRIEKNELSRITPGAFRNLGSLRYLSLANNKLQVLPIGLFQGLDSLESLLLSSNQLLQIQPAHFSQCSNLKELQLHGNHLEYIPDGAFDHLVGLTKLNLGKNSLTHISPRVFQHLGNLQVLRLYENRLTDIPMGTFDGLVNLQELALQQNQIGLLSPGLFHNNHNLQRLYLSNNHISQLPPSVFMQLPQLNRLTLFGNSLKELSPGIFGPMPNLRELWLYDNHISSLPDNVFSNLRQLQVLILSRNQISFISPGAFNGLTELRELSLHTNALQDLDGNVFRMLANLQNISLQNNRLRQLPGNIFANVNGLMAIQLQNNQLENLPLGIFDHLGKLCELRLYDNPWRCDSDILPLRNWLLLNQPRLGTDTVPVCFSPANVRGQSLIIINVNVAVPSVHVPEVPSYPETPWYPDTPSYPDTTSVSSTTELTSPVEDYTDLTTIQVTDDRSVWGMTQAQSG

B1: MYT8500 (antibody, V domains shown)
VH: EVQLVESGGGLVQPGGSLRLSCTASGFSFSGSYWICWVRQAPGKGLEWVGCINGGSHDITYYASWAKGRFTISRDTSKNTVYLQKTSLRAEDTAVYYCASDTSYTAYGNFYFNLWGQGTLVTVSS
VL: EIVMTQSPSPLSASVGDRVIITCQSSQSVLNNNWLAWYQQKPGKAPKLLIYDASSLASGVPSRFSGSGSGAEFTLTISSLQPDDFATYYCQGEFSCGSADCNAFGQGTKLTVL
B2: MYT8391 (antibody, V domains shown)
VH: EVQLVESGGGLVQPGGSLRLSCTASGLDFRRTNYICWVRQAPGKGLEWVGCIYIADVVHYYASWAKGRFTFSRDTSKNTVYLQMNSLRAEDTAVYYCARGADGGFHYGMDLWGQGTLVTVSS
VL: EIVMTQSPSTLSASVGDRVIITCQASQSIGNYLSWYQQKPGKAPKRLIYSASTLPSGVPSRFSGSGSGAEFTLTISSLQPDDFATYYCQNNYWLAGYGHPFGQGTKLTVL
B3: MYT8416 (antibody, V domains shown)
VH: B2 VH with H106V
VL: B2 VL with W93H
B4: MYT8094 (antibody, IgG1, V domains shown)
VH: EVQLVESGGGLVQPGGSLRLSCTASGFSFSSSHWICWVRQAPGKGLEWVGCIYAGSIGSTYYASWAKGRFTISRDTSKNTVYLQMNSLRAEDTAVYYCARAPNDIYNYYFNLWGQGTLVTVSS
VL: EIVMTQSPSTLSASVGDRVIITCQASENIYNYLAWYQQKPGKAPKLLIYYASTLASGVPSRFSGSGSGAEFTLTISSLQPDDFATYYCQSGYVSKSSTFGQGTKLTVL
B5: MYT9521 (antibody, V domains shown)
VH: B4 VH
VL: B4 VL with T53D
B6: MYT9731 (antibody, V domains shown)
VH: B4 VH
VL: B4 VL with N28E
B7: MYT8483-c-ADC (antibody, human IgG1, kappa, V domains shown)
VH: B1 VH with H57L
VL: EIVMTQSPSPLSASVGDRVIITCQSSQSVLNNNWLAWYQQKPGKAPKLLIYDASSLASGVPSRFSGSGSGAEFTLTISSLQPDDFATYYCQGEFSCGSADCNAFGQGTKLTVLR
modifications: vcMMAE conjugated to the cysteine at position 205 of the light chain
B8: MYT9776-c-ADC (antibody, human IgG1, kappa, V domains shown)
VH: B1 VH with S32H, N53H
VL: B7 VL with T111E, V112I, L113K
modifications: vcMMAE conjugated to the cysteine at position 205 of the light chain
B9: MYT9496 (antibody, V domains shown)
VH: B4 VH with P102D
VL: B4 VL
notes: also called hu29F1 VH P102D
B10: MYT9498 (antibody, V domains shown)
VH: B4 VH with D104A
VL: B4 VL
notes: also called hu29F1 VH D104A
B11: MYT9716 (antibody, V domains shown)
VH: B4 VH with P102E
VL: B4 VL
notes: also called hu29F1 VH P102E
B12: MYT9725 (antibody, V domains shown)
VH: B4 VH with N111E
VL: B4 VL
notes: also called hu29F1 VH N111E
B13: MYT9722 (antibody, V domains shown)
VH: B4 VH with Y108E
VL: B4 VL
notes: also called hu29F1 VH Y108E
B14: MYT9724 (antibody, V domains shown)
VH: B4 VH with F110E
VL: B4 VL
notes: also called hu29F1 VH F110E
B15: MYT9726 (antibody, V domains shown)
VH: B4 VH with L112E
VL: B4 VL
notes: also called hu29F1 VH L112E

Target: T1, LRRC15 on the surface of LRRC15+ cells …
Assay: cell-based or functional assay

Internalization in SAOS-2 cells (10 nM, 24 hours), FOB = fold over background (IgG control) | Internalization in SAOS-2 cells (10 nM, 24 hours), FOS = fold over samrotamab | Binder
2.68 fold over background (IgG control) | 1.03 fold over samrotamab | B1
2.94 fold over background (IgG control) | 1.2 fold over samrotamab | B2
2.71 fold over background (IgG control) | 1.05 fold over samrotamab | B3
3.15 fold over background (IgG control) | 1.32 fold over samrotamab | B4
3.02 fold over background (IgG control) | 1.24 fold over samrotamab | B5

Target: T1, LRRC15 on the surface of LRRC15+ cells …
Assay: cell-based or functional assay
Remark: another data set of the same source

Internalization in U87MG cells (10 nM, 24 hours), FOB = fold over background (IgG control) | Internalization in U87MG cells (10 nM, 24 hours), FOS = fold over samrotamab | Binder
2.65 fold over background (IgG control) | 1.93 fold over samrotamab | B1
3.13 fold over background (IgG control) | 2.49 fold over samrotamab | B2
3.05 fold over background (IgG control) | 2.39 fold over samrotamab | B3
3.52 fold over background (IgG control) | 2.94 fold over samrotamab | B4
3.42 fold over background (IgG control) | 2.82 fold over samrotamab | B5

Target: T1, LRRC15 on the surface of LRRC15+ cells …
Assay: cell-based or functional assay
Remark: another data set of the same source

Binder | Cytotoxicity against SAOS-2 cells, Fold over MYT5438 (mAb complexed with MMAF-conjugated secondary antibody, CTG assay)
B1 | 1.06 fold over MYT5438
B2 | 1.14 fold over MYT5438
B3 | 1.13 fold over MYT5438
B4 | 1.45 fold over MYT5438
B5 | 1.49 fold over MYT5438
B6 | 1.05 fold over MYT5438

Target: T1, LRRC15 on the surface of LRRC15+ cells …
Assay: cell-based or functional assay
Remark: another data set of the same source

Binder | 20 nM Efficacy (cytotoxicity of candidates against SAOS-2 cells)
B7 | 29.4
B8 | 66.3

Target: T2, Human LRRC15 Protein, His Tag (Acro …)
Assay: BLI; dissociation pH 7.4 black, pH 5.4 grey [2/2); D00020 FIG. 4B (2/2]
Description: Desirable mutations were transferred to a humanized framework (humanized, MYT 8387-8411). After allowing for four days of protein expression, cell culture supernatants were collected, quantified by SDS-PAGE analysis, and the pH dependence of the variant was evaluated using biolayer interferometry (BLI) on an Octet RED 96e instrument. Briefly, cell culture supernatants were diluted based on qualitative expression level of the variant determined by visual examination of SDS-PAGE gels, 5 μL of cell culture supernatant was diluted into 195 μL of 1×PBST, pH 7.4 for high expressors, 25 μL of cell culture supernatant was diluted into 175 μL of 1×PBST, pH 7.4 for medium expressors and 100 μL of cell culture supernatant was diluted into 100 μL of 1×PBST, pH 7.4 for low expressors for loading onto the sensor tips. The resulting diluted supernatants were then captured on an anti-human Fc sensor (Forte Bio). A baseline was established using 1×PBST (50 mM Potassium Phosphate Buffer+150 mM NaCl+0.05% Tween 20) pH 7.4, and the […] was associated with 50 nM of LRRC15 (Human LRRC15 Protein, His Tag, Acro Biosystems) in 1×PBST pH 7.4 for 120 sec to generate an association curve. In the dissociation phase, the antibody-antigen complex on the sensor was exposed to 1×PBST pH 7.4 or pH 5.4, for 300 sec. Association and dissociation phase curves were examined for the starting ABPC antibody (with no substitutions) and each corresponding antibody variant at pH 5.4 and pH 7.4 to inform on two criteria: a) enhanced dissociation (i.e., higher koff values) at pH 5.4 due to histidine substitution compared to the starting ABPC, (with no substitutions), and b) reduced dissociation at pH 7.4 (i.e., lower koff values) compared to pH 5.4 in the antibody variant itself and with the starting ABPC (with no substitutions).
The methods of Examples 9-10 were applied to RabMAb clone 29F1 (rabbit VH SEQ ID NO: 572 and VL SEQ ID NO: 578; and humanized VH SEQ ID NO: 576 and VL SEQ ID NO: 582).

binding result | Binder
binds | B9
binds | B10

Target: T2, Human LRRC15 Protein, His Tag (Acro …)
Assay: BLI; dissociation pH 7.4 black, pH 5.4 grey [2/2); D00026 FIG. 6B (2/2]

binding result | Binder
binds | B11
binds | B12
binds | B13
binds | B14
binds | B15
